The values that follow are results of earlier work, collected in patent publication US20120128767A1, “THERAPEUTIC CALCIUM PHOSPHATE PARTICLES AND METHODS OF MAKING AND USING SAME” (priority 2008, published 2012).

Read-outs that look alike come from different tables or passages of the source.

Regarding insulin, the absorption efficiency entry reads like this: (insulin added to preformed calcium phosphate particles) “about 40%”; (insulin mixed during the particle formation) “about 89%”.
